In paper PMC7474645:

Assays:
Experiment in all cases: FRET or BRET
[1] = molecular target: formyl peptide 2 receptor fused to Rluc8 (FPR2-Rluc8) (UniProt P25090)
[2] = molecular target: endothelin A receptor fused to Rluc8 (ETA-Rluc8) (UniProt P25101)
[3] = molecular target: thromboxane A2 receptor fused to Rluc8 (TP-Rluc8) (UniProt P21731)
[4] = molecular target: Smoothened fused to Rluc8 (Smo-Rluc8) (UniProt Q99835)
[5] = molecular target: formyl peptide 1 receptor fused to Rluc8 (FPR1) (UniProt P21462)
UniProt P21462, sequence (P21462 whole entry, the tested form may be a part): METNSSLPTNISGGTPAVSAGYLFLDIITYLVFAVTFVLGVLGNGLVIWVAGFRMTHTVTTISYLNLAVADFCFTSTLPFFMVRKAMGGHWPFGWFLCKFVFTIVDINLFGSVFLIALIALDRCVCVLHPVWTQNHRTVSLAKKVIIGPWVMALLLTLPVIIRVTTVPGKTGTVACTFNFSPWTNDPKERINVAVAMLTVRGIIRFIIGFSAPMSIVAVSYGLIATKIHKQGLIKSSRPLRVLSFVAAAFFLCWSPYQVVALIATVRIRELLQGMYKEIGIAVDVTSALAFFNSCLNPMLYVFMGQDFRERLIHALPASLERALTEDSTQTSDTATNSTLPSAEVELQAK

UniProt P25101, sequence (P25101 21-427): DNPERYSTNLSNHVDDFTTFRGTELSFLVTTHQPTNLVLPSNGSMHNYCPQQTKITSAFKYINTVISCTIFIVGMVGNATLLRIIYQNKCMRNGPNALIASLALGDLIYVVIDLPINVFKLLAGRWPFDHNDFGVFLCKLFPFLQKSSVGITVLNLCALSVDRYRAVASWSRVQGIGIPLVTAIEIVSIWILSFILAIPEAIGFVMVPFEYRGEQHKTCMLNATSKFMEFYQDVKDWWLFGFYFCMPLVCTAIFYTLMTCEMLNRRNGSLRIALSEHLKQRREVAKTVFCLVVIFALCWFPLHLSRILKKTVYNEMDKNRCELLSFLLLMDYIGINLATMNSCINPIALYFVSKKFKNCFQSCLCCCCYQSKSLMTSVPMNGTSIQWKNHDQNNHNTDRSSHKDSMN
UniProt P21731, sequence (P21731 whole entry, the tested form may be a part): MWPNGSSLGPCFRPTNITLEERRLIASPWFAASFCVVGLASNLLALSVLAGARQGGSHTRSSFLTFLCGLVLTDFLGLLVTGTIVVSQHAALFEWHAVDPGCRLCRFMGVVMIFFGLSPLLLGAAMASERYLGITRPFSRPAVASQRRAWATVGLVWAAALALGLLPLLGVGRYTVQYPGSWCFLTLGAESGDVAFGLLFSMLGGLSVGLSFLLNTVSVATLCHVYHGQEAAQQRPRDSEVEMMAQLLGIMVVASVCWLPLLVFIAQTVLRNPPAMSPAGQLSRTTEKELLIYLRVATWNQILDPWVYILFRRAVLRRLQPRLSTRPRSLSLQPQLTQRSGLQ
UniProt Q99835, sequence (Q99835 28-787): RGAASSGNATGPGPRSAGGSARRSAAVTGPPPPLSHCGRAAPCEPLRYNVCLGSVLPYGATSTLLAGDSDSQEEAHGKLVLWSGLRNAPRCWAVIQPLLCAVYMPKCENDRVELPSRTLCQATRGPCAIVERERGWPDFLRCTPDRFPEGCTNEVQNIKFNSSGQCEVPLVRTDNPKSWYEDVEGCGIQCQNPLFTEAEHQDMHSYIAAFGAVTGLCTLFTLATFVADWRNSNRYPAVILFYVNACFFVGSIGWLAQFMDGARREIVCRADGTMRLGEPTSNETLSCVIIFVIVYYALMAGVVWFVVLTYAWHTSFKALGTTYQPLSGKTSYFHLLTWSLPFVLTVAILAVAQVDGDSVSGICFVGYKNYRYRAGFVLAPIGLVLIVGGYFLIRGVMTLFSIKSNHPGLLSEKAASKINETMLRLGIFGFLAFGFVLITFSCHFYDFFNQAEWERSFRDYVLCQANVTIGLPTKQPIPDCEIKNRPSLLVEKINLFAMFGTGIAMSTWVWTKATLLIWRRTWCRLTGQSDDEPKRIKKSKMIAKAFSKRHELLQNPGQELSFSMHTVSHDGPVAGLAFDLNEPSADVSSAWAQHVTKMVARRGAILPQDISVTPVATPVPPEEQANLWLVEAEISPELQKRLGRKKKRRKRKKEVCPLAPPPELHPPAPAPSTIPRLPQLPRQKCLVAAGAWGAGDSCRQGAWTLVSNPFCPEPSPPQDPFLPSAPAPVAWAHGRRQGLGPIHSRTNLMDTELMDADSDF
UniProt P25090, sequence (P25090 whole entry, the tested form may be a part): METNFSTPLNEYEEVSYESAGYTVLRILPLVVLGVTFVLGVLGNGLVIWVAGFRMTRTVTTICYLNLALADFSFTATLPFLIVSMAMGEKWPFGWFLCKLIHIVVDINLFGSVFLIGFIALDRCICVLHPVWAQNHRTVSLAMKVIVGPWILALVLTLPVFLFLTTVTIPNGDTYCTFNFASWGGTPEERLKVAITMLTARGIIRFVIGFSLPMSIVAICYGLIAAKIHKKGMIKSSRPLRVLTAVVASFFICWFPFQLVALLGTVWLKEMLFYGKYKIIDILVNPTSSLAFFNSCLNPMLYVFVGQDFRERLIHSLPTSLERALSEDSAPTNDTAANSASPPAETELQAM

RGDP (GDP-resistance ratio) [1] | RGDP (GDP-resistance ratio) [2] | RGDP (GDP-resistance ratio) [3] | RGDP (GDP-resistance ratio) [4] | RGDP (GDP-resistance ratio) [5] | Substance
0.92 | – | – | – | – | G12 heterotrimer, Gα12β1γ2-Venus (from UniProt Q03113;P62873;P59768) (complex; other documents disagree on this pair)
– | 0.21 | 0.18 | – | – | G13 heterotrimer, Gα13β1γ2-Venus (from UniProt Q14344;P62873;P59768) (complex)
– | 0.66 | 0.55 | 1.01 | 0.96 | G12 heterotrimer, Gα12β1γ2-Venus (from UniProt Q03113;P62873;P59768) (complex)
– | 0.29 | – | – | – | Gq heterotrimer, Gαqβ1γ2-Venus (from UniProt P50148;P62873;P59768) (complex)
